From patent publication US20210284724A1 (I MAB BIOPHARMA US, published 2021)

What was measured:
human CXCL13 [1] = molecular target: T1, human CXCL13 (human, UniProt O43927 23-109); assay: SPR Biacore 8K, Fab over immobilised CXCL13
T1 construct: also called huCXCL13; rhCXCL13
T1 sequence (looked up): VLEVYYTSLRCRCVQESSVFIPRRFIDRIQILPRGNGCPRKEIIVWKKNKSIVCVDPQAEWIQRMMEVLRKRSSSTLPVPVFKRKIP
Experimental: Among all humanized Fab samples, 71F4A3-VH2VL1, 71F4A3-VH1VL1 (Hz71F4), 71F4A3-VH1VL2, 71F4A3-VH3VL1, 411A11E9-VH1VL4, 411A11E9-VH3VL4, 411A11E9-VH2VL4, 411A11E9-VH3VL2, 411A11E9-VH1VL2, 21H12D9-VH1VL1, 21H12D9-VH2VL2, 21H12D9-VH3VL3, 21H12D9-VH1VL2, 64C10G1-VH1VL3, 64C10G1-VH1VL4, 64C10G1-VH1VL1, 64C10G1-VH1VL2 were selected to test affinity by Biacore 8K. 10 mM HEPES, 150 mM NaCl, 3 mM EDTA, 0.05% Tween-20, pH 7.4 served as running buffer and 10 mM glycine-HCl, pH2.0 served as regeneration buffer. CXCL13 protein were immobilized on Sensor Chip CM5 using amine coupling method (immobilization level ˜250RU). The serial concentrations of Fab (0-20 nM) were injected over immobilized CXCL13 at the flow rate of 30 μl/min. The dissociation phases were 600s.

human CXCL13 [2] = molecular target: T1, human CXCL13; assay: SPR Biacore, off-rate ranking of Fabs
mouse CXCL13 = molecular target: T2, mouse CXCL13 (mouse, UniProt O55038 22-109); assay: ELISA, coated antigen
T2 construct: also called rmCXCL13
T2 sequence (looked up): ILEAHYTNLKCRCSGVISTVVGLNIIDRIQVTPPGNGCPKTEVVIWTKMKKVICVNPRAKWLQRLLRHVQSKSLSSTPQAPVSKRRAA

cynomolgus CXCL13 = molecular target: T3, cynomolgus CXCL13 (cynomolgus, UniProt H6WS58 23-109); assay: ELISA, coated antigen
T3 construct: also called cynoCXCL13; Cyno CXCL13
T3 sequence: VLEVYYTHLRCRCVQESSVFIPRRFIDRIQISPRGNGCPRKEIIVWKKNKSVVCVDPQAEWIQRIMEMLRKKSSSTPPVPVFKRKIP

human CXCL13 [3] = molecular target: T1, human CXCL13; assay: ELISA, coated antigen

B1: 21H12D9-VH2VL2 (Fab, V domains shown)
VH: QVQLVQSGAEVVKPGASVKVSCKASGYTFTDYYMNWVRQAPGQGLEWMGVINPNNGGTTYKEKFKGRVTMTVDTSISTAYMELSRLRSDDTAVYYCARDDYDAGYWGQGTLVTVSS
VL: DIQMTQSPSSVSTSVGDRVTITCKASQNVDTAVAWYQQKPGKAPKLLIYSASHRYTGVPSRFSGSGSGTDFTLTISSLQPEDFATYYCQQYTDFPLTFGQGTRLEIK
notes: Humanized Fab, human gamma 1 and kappa constant domains; also called 21VH12D9-VH2VL2
Kd (human CXCL13 [1]): 1.32 nM
koff (human CXCL13 [1]): 0.00195 s⁻¹
kon (human CXCL13 [1]): 1.48e+06 M⁻¹ s⁻¹
Kd (human CXCL13 [2]): 1.94 nM
koff (human CXCL13 [2]): 0.000802 s⁻¹
kon (human CXCL13 [2]): 414000 M⁻¹ s⁻¹

B2: 21H12D9-VH3VL3 (Fab, V domains shown)
VH: QVQLVQSGAEVVKPGASVKVSCKASGYTFTDYYMNWVRQAPGQGLEWIGVINPNNGGTTYKEKFKGRATLTVDTSISTAYMELSRLRSDDTAVYYCARDDYDAGYWGQGTLVTVSS
VL: DIQMTQSPSSVSTSVGDRVTITCKASQNVDTAVAWYQQKPGKAPKLLIYSASHRYTGVPSRFSGSGSGTDFTLTISSVQPEDFATYYCQQYTDFPLTFGQGTRLEIK
notes: Humanized Fab, human gamma 1 and kappa constant domains; also called 21VH12D9-VH3VL3
Kd (human CXCL13 [1]): 1.22 nM
koff (human CXCL13 [1]): 0.00182 s⁻¹
kon (human CXCL13 [1]): 1.49e+06 M⁻¹ s⁻¹
Kd (human CXCL13 [2]): 1.47 nM
koff (human CXCL13 [2]): 0.00207 s⁻¹
kon (human CXCL13 [2]): 1.41e+06 M⁻¹ s⁻¹

B3: 21H12D9-VH1VL1 (Fab, V domains shown)
VH: QVQLVQSGAEVKKPGASVKVSCKASGYTFTDYYMNWVRQAPGQGLEWMGVINPNNGGTTYKEKFKGRVTMTRDTSISTAYMELSRLRSDDTAVYYCARDDYDAGYWGQGTLVTVSS
VL: DIQMTQSPSSVSASVGDRVTITCKASQNVDTAVAWYQQKPGKAPKLLIYSASHRYTGVPSRFSGSGSGTDFTLTISSLQPEDFATYYCQQYTDFPLTFGQGTRLEIK
notes: Humanized Fab, human gamma 1 and kappa constant domains; also called 21VH12D9-VH1VL1
Kd (human CXCL13 [1]): 1.23 nM
koff (human CXCL13 [1]): 0.00203 s⁻¹
kon (human CXCL13 [1]): 1.66e+06 M⁻¹ s⁻¹
Kd (human CXCL13 [2]): 1.33 nM
koff (human CXCL13 [2]): 0.00323 s⁻¹
kon (human CXCL13 [2]): 2.42e+06 M⁻¹ s⁻¹

B4: 21H12D9-VH4VL3 (Fab, V domains shown)
VH: QVQLVQSGAEVVKPGASVKMSCKASGYTFTDYYMNWVRQAPGQGLEWIGVINPNNGGTTYKEKFKGRATLTVDTSIGTAYMELSRLRSDDTAVYYCARDDYDAGYWGQGTLLTVSS
VL: DIQMTQSPSSVSTSVGDRVTITCKASQNVDTAVAWYQQKPGKAPKLLIYSASHRYTGVPSRFSGSGSGTDFTLTISSVQPEDFATYYCQQYTDFPLTFGQGTRLEIK
notes: Humanized Fab, human gamma 1 and kappa constant domains; also called 21VH12D9-VH4VL3
Kd (human CXCL13 [2]): 1.59 nM
koff (human CXCL13 [2]): 0.00116 s⁻¹
kon (human CXCL13 [2]): 729000 M⁻¹ s⁻¹

B5: 21H12D9-VH1VL2 (Fab, V domains shown)
VH: QVQLVQSGAEVKKPGASVKVSCKASGYTFTDYYMNWVRQAPGQGLEWMGVINPNNGGTTYKEKFKGRVTMTRDTSISTAYMELSRLRSDDTAVYYCARDDYDAGYWGQGTLVTVSS
VL: DIQMTQSPSSVSTSVGDRVTITCKASQNVDTAVAWYQQKPGKAPKLLIYSASHRYTGVPSRFSGSGSGTDFTLTISSLQPEDFATYYCQQYTDFPLTFGQGTRLEIK
notes: Humanized Fab, human gamma 1 and kappa constant domains; also called 21VH12D9-VH1VL2
Kd (human CXCL13 [1]): 1.19 nM
koff (human CXCL13 [1]): 0.00171 s⁻¹
kon (human CXCL13 [1]): 1.44e+06 M⁻¹ s⁻¹
Kd (human CXCL13 [2]): 1.99 nM
koff (human CXCL13 [2]): 0.000757 s⁻¹
kon (human CXCL13 [2]): 380000 M⁻¹ s⁻¹

B6: 411A11E9-VH1VL2 (Fab, V domains shown)
VH: EVQLVESGGGLVQPGGSLRLSCAASGFTFSDYYMAWVRQAPGKGLEWVASINYDGGDTYYRDSVKGRFTISRDNAKNSLYLQMNSLRAEDTAVYYCAREEDYDGSYVMDAWGQGTLVTVSS
VL: DIQMTQSPSSLSASVGDRVTITCKASQNINKELTWYQQKPGKAPKRLIYNTNILQTGVPSRFSGSGSGTEFTLTISSLQPEDFATYFCLQQSSLYTFGQGTKLEIK
notes: Humanized Fab, human gamma 1 and kappa constant domains
Kd (human CXCL13 [1]): 2.83 nM
koff (human CXCL13 [1]): 0.00161 s⁻¹
kon (human CXCL13 [1]): 570000 M⁻¹ s⁻¹
Kd (human CXCL13 [2]): 14.5 nM
koff (human CXCL13 [2]): 0.00114 s⁻¹
kon (human CXCL13 [2]): 78200 M⁻¹ s⁻¹

B7: 411A11E9-VH2VL4 (Fab, V domains shown)
VH: EVQLVESGGGLVQPGGSLRLSCAASGFTFSDYYMAWVRQAPGKGLEWVASINYDGGDTYYRDSVKGRFTISRDNAKNSLYLQMNSLRAEDTAVYYCATEEDYDGSYVMDAWGQGTLVTVSS
VL: DIQMTQSPSSLSASVGDRVTITCKASQNINKELTWYQQKPGKAPKRLIYNTNILQTGIPSRFSGSGSGTEYTLTISSLQPEDFATYFCLQQSSLYTFGQGTKLEIK
notes: as for B6
Kd (human CXCL13 [1]): 0.931 nM
koff (human CXCL13 [1]): 0.000887 s⁻¹
kon (human CXCL13 [1]): 953000 M⁻¹ s⁻¹
Kd (human CXCL13 [2]): 0.634 nM
koff (human CXCL13 [2]): 0.00105 s⁻¹
kon (human CXCL13 [2]): 1.66e+06 M⁻¹ s⁻¹

B8: 411A11E9-VH3VL4 (Fab, V domains shown)
VH: EVQLVESGGGLVQPGGSLRLSCAVSGFTFSDYYMAWVRQAPGKGLEWVASINYDGGDTYYRDSVKGRFTISRDNAKNSLYLQMNSLRAEDTAVYYCATEEDYDGSYVMDAWGQGTLVTVSS
VL: DIQMTQSPSSLSASVGDRVTITCKASQNINKELTWYQQKPGKAPKRLIYNTNILQTGIPSRFSGSGSGTEYTLTISSLQPEDFATYFCLQQSSLYTFGQGTKLEIK
notes: as for B6
Kd (human CXCL13 [1]): 0.908 nM
koff (human CXCL13 [1]): 0.000823 s⁻¹
kon (human CXCL13 [1]): 906000 M⁻¹ s⁻¹
Kd (human CXCL13 [2]): 0.498 nM
koff (human CXCL13 [2]): 0.00109 s⁻¹
kon (human CXCL13 [2]): 2.19e+06 M⁻¹ s⁻¹

B9: 411A11E9-VH1VL4 (Fab, V domains shown)
VH: EVQLVESGGGLVQPGGSLRLSCAASGFTFSDYYMAWVRQAPGKGLEWVASINYDGGDTYYRDSVKGRFTISRDNAKNSLYLQMNSLRAEDTAVYYCAREEDYDGSYVMDAWGQGTLVTVSS
VL: DIQMTQSPSSLSASVGDRVTITCKASQNINKELTWYQQKPGKAPKRLIYNTNILQTGIPSRFSGSGSGTEYTLTISSLQPEDFATYFCLQQSSLYTFGQGTKLEIK
notes: as for B6
Kd (human CXCL13 [1]): 0.844 nM
koff (human CXCL13 [1]): 0.00157 s⁻¹
kon (human CXCL13 [1]): 1.86e+06 M⁻¹ s⁻¹
Kd (human CXCL13 [2]): 1.82 nM
koff (human CXCL13 [2]): 0.00063 s⁻¹
kon (human CXCL13 [2]): 346000 M⁻¹ s⁻¹

B10: 411A11E9-VH3VL2 (Fab, V domains shown)
VH: EVQLVESGGGLVQPGGSLRLSCAVSGFTFSDYYMAWVRQAPGKGLEWVASINYDGGDTYYRDSVKGRFTISRDNAKNSLYLQMNSLRAEDTAVYYCATEEDYDGSYVMDAWGQGTLVTVSS
VL: DIQMTQSPSSLSASVGDRVTITCKASQNINKELTWYQQKPGKAPKRLIYNTNILQTGVPSRFSGSGSGTEFTLTISSLQPEDFATYFCLQQSSLYTFGQGTKLEIK
notes: as for B6
Kd (human CXCL13 [1]): 1.2 nM
koff (human CXCL13 [1]): 0.00126 s⁻¹
kon (human CXCL13 [1]): 1.05e+06 M⁻¹ s⁻¹
Kd (human CXCL13 [2]): 0.919 nM
koff (human CXCL13 [2]): 0.00163 s⁻¹
kon (human CXCL13 [2]): 1.78e+06 M⁻¹ s⁻¹

B11: 368D6D10 (antibody, V domains shown)
VH: DVQLQESGPGLVKPSQSLSLTCTVTGYSITSDYAWNWIRQFPGNKLEWMGYISYSGSTSYNPSLKSRISITRDTSKNQFFLQLNSVTTEDTATYYCVAGHFDYWGQGTTLTVSS
VL: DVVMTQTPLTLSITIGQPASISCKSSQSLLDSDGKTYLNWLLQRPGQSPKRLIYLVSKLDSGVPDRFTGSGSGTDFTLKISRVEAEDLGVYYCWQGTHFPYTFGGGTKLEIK
notes: Hybridoma mAb
binding result (mouse CXCL13): no binding
EC50 (cynomolgus CXCL13): 0.14 µg/mL
EC50 (human CXCL13 [3]): 0.0864 µg/mL

B12: 355A1F6 (antibody, V domains shown)
VH: DVQLQESGPGLVKPSQSLSLTCTVTGYSITSDYAWSWIRQFPGNKLEWMGYISYSDSTSYNPSLKSRISITRDTSKNQFFLQLNSVTAEDTATYYCAAGHFDYWGQGTILTVSS
VL: not shown
notes: Hybridoma mAb
binding result (mouse CXCL13): no binding
EC50 (cynomolgus CXCL13): 0.154 µg/mL
EC50 (human CXCL13 [3]): 0.0943 µg/mL

B13: 348E12F12 (antibody, V domains shown)
VH: DVQLQESGPGLVKPSQSLSLTCTVTGYSITSDYAWNWIRQFPGNKLEWMGYISYSGDTSYNPSLKSRISITRDTSKNQFFLQLNSVTTEDTATYYCVAGHFDYWGQGTTLTVSS
VL: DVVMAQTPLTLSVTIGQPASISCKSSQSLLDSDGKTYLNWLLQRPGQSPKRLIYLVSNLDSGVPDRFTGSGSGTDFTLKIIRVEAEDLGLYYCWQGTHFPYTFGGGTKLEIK
notes: Hybridoma mAb
binding result (mouse CXCL13): no binding
EC50 (cynomolgus CXCL13): 0.0765 µg/mL
EC50 (human CXCL13 [3]): 0.0636 µg/mL

B14: 353F9C4 (antibody, V domains shown)
VH: DVQLQESGPGLVKPSQSLSLTCTVTGYSITSDYAWSWIRQFPGNKLEWMGYITYSDSTSYNPSLKSRISITRDTSKNQFFLQLNSVTAEDTATYYCAAGHFDYWGQGTILTVSS
VL: not shown
notes: Hybridoma mAb
binding result (mouse CXCL13): no binding
EC50 (cynomolgus CXCL13): 0.172 µg/mL
EC50 (human CXCL13 [3]): 0.135 µg/mL

B15: 367F1C2 (antibody, V domains shown)
VH: DVQLQESGPGLVKPSQSLSLTCTVTGYSITSDYAWNWIRHFPGNKLEWMGYISYTGSSSYNPSLKSRISITRDTSKNQFFLQLNSVTSEDTATYYCVAGHFDYWGPGTTLTVSS
VL: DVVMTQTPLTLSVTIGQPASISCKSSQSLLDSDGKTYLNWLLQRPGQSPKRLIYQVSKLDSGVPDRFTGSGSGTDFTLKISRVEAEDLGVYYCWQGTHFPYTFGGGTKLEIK
notes: Hybridoma mAb
binding result (mouse CXCL13): no binding
EC50 (cynomolgus CXCL13): 0.0557 µg/mL
EC50 (human CXCL13 [3]): 0.0668 µg/mL
